Measured values from PMC9723621.

Columns and labels:
[1] = target: ArdK from plasmid R388 containing a C-terminal His tag (ArdKHT) (plasmid R388); test: SEC; S75 gel filtration of the purified protein in solution
ArdK (SeMet, ArdKHT) = target: T1, ArdK (SeMet, ArdKHT) (plasmid R388 (expressed in E. coli …, UniProt Q6I6B7 1-107)); test: X-ray crystallography (2.8 A); crystal structures only; protein in 20 mM Tris pH 7.5, 150 mM NaCl, 1 mM DTT, 1 mM EDTA (gel filtration buffer); complex and crystallization conditions not in the material; conditions: protein: recombinant; tags: C-terminal His; chain copies: 2; blunt
T1 sequence: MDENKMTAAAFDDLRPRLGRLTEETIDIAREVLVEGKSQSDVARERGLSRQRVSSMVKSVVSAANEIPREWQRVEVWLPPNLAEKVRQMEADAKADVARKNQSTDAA

ArdK (ArdKHT) = target: T2, ArdK (ArdKHT) (plasmid R388 (expressed in E. coli …, UniProt Q6I6B7 1-107)); test: X-ray crystallography (2.6 A); crystal structures only; protein in 20 mM Tris pH 7.5, 150 mM NaCl, 1 mM DTT, 1 mM EDTA (gel filtration buffer); complex and crystallization conditions not in the material; conditions: protein: recombinant; tags: C-terminal His; chain copies: 2; blunt
T2 sequence: T1 sequence

Molecule: ArdK from plasmid R388 containing a C-terminal His tag (ArdKHT) (natural protein)
- stoichiometry N [1]: 2

B1: DR operator, Pssb (DR_1/DR_2) (dsDNA)
DNA 1: GTATTGACACCTATTGACA
DNA 2: TGTCAATAGGTGTCAATAC
- binding result (ArdK (SeMet, ArdKHT)): binds

B2: IR operator, n = 3 spacer (IR_1/IR_2) (dsDNA)
DNA 1: GTAATGTCAATATTTGACA
DNA 2: TGTCAAATATTGACATTAC
- binding result (ArdK (ArdKHT)): binds
